The target in the assay is protective antigen (PA83, 83 kDa), monomeric (Bacillus anthracis). Briefly: SPR. Background: SPR reads the build-up and loss of mass on a sensor chip optically.
Chain of protective antigen (PA83, 83 kDa), monomeric (Bacillus anthracis) (P13423 30-764 limits assumed): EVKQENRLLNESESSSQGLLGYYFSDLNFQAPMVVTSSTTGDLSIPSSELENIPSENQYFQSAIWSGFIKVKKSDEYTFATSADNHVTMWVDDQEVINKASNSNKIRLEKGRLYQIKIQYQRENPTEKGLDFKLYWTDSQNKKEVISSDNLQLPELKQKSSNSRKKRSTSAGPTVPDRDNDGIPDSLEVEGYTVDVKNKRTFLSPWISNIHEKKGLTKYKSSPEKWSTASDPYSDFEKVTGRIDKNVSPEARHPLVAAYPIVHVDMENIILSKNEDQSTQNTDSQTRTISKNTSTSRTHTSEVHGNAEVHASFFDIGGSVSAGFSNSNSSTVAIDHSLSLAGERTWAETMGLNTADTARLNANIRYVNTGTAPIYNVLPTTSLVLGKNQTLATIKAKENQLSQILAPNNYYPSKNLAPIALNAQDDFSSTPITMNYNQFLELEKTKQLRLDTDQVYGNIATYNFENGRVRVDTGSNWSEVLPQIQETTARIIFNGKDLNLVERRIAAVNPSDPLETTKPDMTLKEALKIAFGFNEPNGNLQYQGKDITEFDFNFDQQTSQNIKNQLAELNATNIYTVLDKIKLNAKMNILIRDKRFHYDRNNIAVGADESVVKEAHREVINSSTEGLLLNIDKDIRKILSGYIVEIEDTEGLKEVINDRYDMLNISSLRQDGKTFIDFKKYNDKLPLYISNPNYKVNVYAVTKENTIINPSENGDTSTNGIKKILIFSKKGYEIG

The term Kd denotes the constant that tells how readily two partners part at equilibrium. High values mean lower affinity, low ones higher affinity. In general, koff refers to a measure of how fast the partners let go of each other. The low end stands for a long-lived complex, the high end for a short-lived complex. What is called kon is the rate constant with which the complex forms. Low values mean slower complex formation, high ones faster complex formation. As to “CMG2-R40 vWA domain (residues 40-217) (from UniProt P58335 40-217) (domain or fragment)”, the Kd was determined as 2.43 nM, the koff came out at 0.000105 s⁻¹ and the kon is 45300 M⁻¹ s⁻¹.

For the origin of these results see PMC2887854.
